Experimental data from article PMC4144707 (Biochemistry, 2014).
Where no end group is shown, it is not given here.

Target: the molecule itself
Test: deuterium MAS solid-state NMR

| Protein | binding result |
| --- | --- |
| RRAGSVYAGILSYGVGFFLFILVVEAVTLCRLRSPPKKGLG-NH2 (also: (5,5,5-d3) leucine at 385 or 388) [FGFR3 TM–JM (A391E) peptide, FGFR3 (369–407) with two N-terminal arginines] | binds |
| RRAGSVYAGILSYGVGFFLFILVVAAVTLCRLRSPPKKGLG-NH2 (also: (5,5,5-d3) leucine at 385 or 388) [FGFR3 TM–JM (WT) peptide, FGFR3 (369–407) with two N-terminal arginines] | binds |
